The record followed here is publication PMC5461540, “MOB1 Mediated Phospho-recognition in the Core Mammalian Hippo Pathway * ^([image sbox.jpg])” (Molecular & Cellular Proteomics : MCP, 2017).

The target in this test is T1, MOB1A wild-type (human, UniProt Q9H8S9-1 2-216).
T1 construct: also called MOB1A WT; full-length nonphosphorylated human MOB1A; source: E. coli BL21 (DE3) CodonPlus RIL, purified (glutathione-Sepharose, TEV cleavage, subtractive IMAC, SEC); not shown: His6, N-terminal, cleaved; GST, N-terminal, cleaved
T1 sequence (looked up): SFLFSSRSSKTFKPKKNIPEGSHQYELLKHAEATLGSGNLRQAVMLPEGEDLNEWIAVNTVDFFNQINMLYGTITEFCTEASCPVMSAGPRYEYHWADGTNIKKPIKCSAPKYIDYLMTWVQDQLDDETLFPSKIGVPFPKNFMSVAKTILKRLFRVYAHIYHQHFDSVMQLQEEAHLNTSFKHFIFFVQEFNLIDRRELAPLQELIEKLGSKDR
In words: crystal structure; MOB1A mixed with MST1 phosphopeptide at 1:1.5 mole ratio; hanging drops, 0.1 M MES pH 6.0, 0.2 M LiCl, 20% PEG 6000. As to conditions: both partners purified.

Where no end group is shown, it is not given here.

B1: MST1 pT353 phosphopeptide (15-mer, crystallization) (peptide)
peptide: VASTMTDGANTMIEH
modifications: also: phosphothreonine at 353 (place in peptide not given here)
notes: MST1 (STK4), human, 15-mer encompassing pT353; also called MST1-pT353 peptide; source: synthetic peptide, bought: Biomatik
As to B1, the binding result is recorded as “binds”.

B2: MST1 pT367 phosphopeptide (15-mer, crystallization) (peptide)
peptide: DDTLPSQLGTMVINA
modifications: also: phosphothreonine at 367 (place in peptide not given here)
notes: MST1 (STK4), human, 15-mer encompassing pT367; also called MST1-pT367 peptide; source: synthetic peptide, bought: Biomatik
Turning to B2, the binding result is given as “binds”.
